± gives the uncertainty stated by the source.

The nature of the data set: amyloid nucleation score (Sup35N fusion, yeast selection) (log enrichment); library NNK3; higher = more nucleation; inactive = no reads after selection. In outline:
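On medium lacking adenine and uracil, psi-negative yeast expressing peptides of 20 random codons fused to Sup35N were grown 7 days at 30°C after a 24-hour induction with 100 μM copper sulfate. Illumina sequencing of input and output plasmid inserts gave the reads, and sequences under 100 input reads were excluded. The nucleation score is the DiMSum log enrichment of output over input reads, centred on the mode score of non-aggregating sequences.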
Substance PTELIACVAIYNVDYLYWIH displayed an amyloid nucleation score of 2 ± 0.082. Regarding PTITNS, the amyloid nucleation score entry was “inactive”. Turning to PTQNKSDKVACGR, the amyloid nucleation score entry is “inactive”. Substance PTRFMTMKETKPVCWWLGNR yielded an amyloid nucleation score of -0.114 ± 1.1. For PVKGSFDT, the amyloid nucleation score result is “inactive”. For PVLML, the amyloid nucleation score entry was “inactive”. PVNGAVYTKGLTSWLRFIVV registered an amyloid nucleation score of -0.178 ± 0.82. With PVSNRLSCDSAFTFPYNMIF the figure was 0.883 ± 0.16.

In the case of PVTDLWLTFS, the amyloid nucleation score entry is “inactive”. The result for PVYGSLCRFYGVRYGR reads “inactive”; that for PWDSLW, 0.894 ± 0.12. With PWHLIIDLQGWIFLVYEIGQ, the amyloid nucleation score entry was “inactive”.

As to PWRCKRWHFYMYVDCANLRQ, the amyloid nucleation score result is “inactive”. Take PYAGCIH: the amyloid nucleation score entry is “inactive”. Take PYKEFPNNVRPTWNQRYNVK: the amyloid nucleation score entry was “inactive”. As for PYLRT, the amyloid nucleation score result was “inactive”.

On to PYSISMISTRYCLGRQHD, for which the amyloid nucleation score entry was “inactive”. On to QARIWSSSVGAFSNCHSCRC, for which the amyloid nucleation score entry was “inactive”. QARVRYDASTLLFGCTFC gave an amyloid nucleation score of 2.65 ± 0.079. The substance QCDVCVCCVARAEAVRRILG displayed an amyloid nucleation score of 2.33 ± 0.075. For QCKGCFSPVFKSCFICR, the amyloid nucleation score result was “inactive”. With QCKVCIMLYKGDLRANGWYG the figure was 1.86 ± 0.091; with QCLIYLYVFVLPVLEFGMDR, “inactive”; with QCMIYYTDKLLKYSSCTRTM, “inactive”. With QCPKCDLLMRDSDIRFTHAG the entry was “inactive”; with QDFYSACSNIVNST, “inactive”; with QEGGRWEPQKGRWESQAYLS, -0.062 ± 0.49. The result for QFIWRLLRDSTKNFTLLSYK reads “inactive”; that for QFSMLMVVLCP, “inactive”; that for QFVCHHGSPAFPNDGVAKLL, “inactive”.

Consider QGIGGATVTFLRLFV, for which the amyloid nucleation score result was “inactive”. Regarding QGLSRIRTKQGLAWIGLYTV, the amyloid nucleation score result was “inactive”. Consider QGNRS, for which the amyloid nucleation score entry was “inactive”.

The substance QGSYTAESTVHHWGFKMNNY yielded an amyloid nucleation score of 0.754 ± 0.22. With QGYMFFCHYIDICS the entry was “inactive”; with QHMFQAWFTVNKFSRGECGF, “inactive”. In the case of QHRSESIFFVIKSLLLRGCI, the amyloid nucleation score entry was “inactive”. Substance QIALSYSCIITRCVCNLCQR gave an amyloid nucleation score of 3.12 ± 0.056.

Take QIMILVCCQTGFWSERARRG: the amyloid nucleation score worked out at 2.98 ± 0.058. The substance QISFGLLINLSVIFSGLDLV displayed an amyloid nucleation score of 0.801 ± 0.27. The result for QKLNIAFRWFWWFCTLSCNS reads “inactive”. Consider QLFVRVIWDMP, for which the amyloid nucleation score was 0.186 ± 0.45. QLGLIVRNSCLSSIVVKGML returned an amyloid nucleation score of -0.06 ± 0.54. Take QLLCHYNSSSEFLTQKHRYW: the amyloid nucleation score entry was “inactive”. For QLMPKRAVKRDYRDSSWSGV, the amyloid nucleation score result is “inactive”. As for QLMYRE, the amyloid nucleation score entry was “inactive”. The result for QLQSYRQGTFGDQYSPSVHS reads “inactive”. The result for QLYVTPYLRDVWYDQASSYE reads “inactive”; that for QMDRRTPLM, “inactive”.

Take QMLLDRRGKSTAATRVAPTD: the amyloid nucleation score result was “inactive”. In the case of QMSCNQRNISMGFKIGRFYM, the amyloid nucleation score came to 1.5 ± 0.061.

The substance QNCIHKRRSLGSTCATEWDV displayed an amyloid nucleation score of -0.399 ± 1. On to QNCQVLKFRAILFNYLLFLT, for which the amyloid nucleation score result is “inactive”.

QNHTVHSARWDNGSTANTTT: the amyloid nucleation score result is “inactive”.

Take QNVFWIVSGTSEWGSALVFG: the amyloid nucleation score entry was “inactive”. The result for QNVWSSVDNRWSIVENCTMA reads 0.464 ± 0.37; that for QQHDELCGVHMGSGHF, “inactive”; that for QRAYVLVTLVFGA, “inactive”. QRMTNFLLGRVSV: the amyloid nucleation score entry was “inactive”. For QRSSHGPLGCLSDLQLNTLR, the amyloid nucleation score was -0.882 ± 1.4. QSEICLSWCIQSVGDVVDYR: the amyloid nucleation score result was “inactive”. Take QSFLATSFSFYFLSPGYVNY: the amyloid nucleation score result is “inactive”.

Take QSFQRSVYFSSKGNTEGLFS: the amyloid nucleation score result was “inactive”. As to QSGSVCIGSHASLRRAVVRR, the amyloid nucleation score result was “inactive”. The result for QSNFLFLDFANVYSHKQWCL reads 1.71 ± 0.066; that for QSPRDTSPDLRTYCLVA, “inactive”; that for QSYVRQF, “inactive”.

For QTRELRSQLLMPFSITDVRS, the amyloid nucleation score entry was “inactive”. As to QTSNMVAWCLSLFRAGRPTK, the amyloid nucleation score result is “inactive”. In the case of QTVTRLTNSNSKLYFQPDVA, the amyloid nucleation score result is “inactive”. Consider QVLRSYHYGCYSGCGALHMR, for which the amyloid nucleation score result was “inactive”. As to QVNFGRGQRTLVWTGIRCSH, the amyloid nucleation score result was “inactive”. For QYCVIMWPCIYFRVTFSF, the amyloid nucleation score entry is “inactive”. QYGSLGSTYTSAYLWRLYVL: the amyloid nucleation score result was “inactive”. Consider QYKLFFYWESMV, for which the amyloid nucleation score result is “inactive”. As for QYLCWCCVARRPGSGFRTVV, the amyloid nucleation score result is “inactive”. As for RAFMVSVSHCRMCWIWC, the amyloid nucleation score result is “inactive”. As for RAGTKLPLYL, the amyloid nucleation score result is “inactive”.

For the substance RAKVISSWSLPGSSVKSYPA, the amyloid nucleation score result is “inactive”. In the case of RANWLGLVTVGS, the amyloid nucleation score result is “inactive”. Substance RARLHSVAINDVHSFTVSLG had an amyloid nucleation score of 0.004 ± 0.39. For the substance RAWVLHCGNGYWYPLGQ, the amyloid nucleation score entry was “inactive”. In the case of RCDIFTTTFEFREVHCLWVG, the amyloid nucleation score result is “inactive”.

As for RCFGKIC, the amyloid nucleation score result is “inactive”. As for RCFRTLIRENMKLANTSDMT, the amyloid nucleation score result is “inactive”.

With RCHISERD, the amyloid nucleation score entry is “inactive”. Turning to RCICTRFLVPWDSIA, the amyloid nucleation score entry is “inactive”. Consider RCLAPGCRIVNRFLSINYKS, for which the amyloid nucleation score result is “inactive”.

RCNGTL: the amyloid nucleation score result was “inactive”. For the substance RCVSFTLKIGLIFKQTPSCR, the amyloid nucleation score result is “inactive”. As to RCWLKRAWVWSQKVSDRSTW, the amyloid nucleation score result was “inactive”. As to RCYNHFHSI, the amyloid nucleation score result was “inactive”. Take RDDFYLNFNFNFVRHGTRDS: the amyloid nucleation score worked out at 1.26 ± 0.15. For the substance RDFAR, the amyloid nucleation score result is “inactive”.

Turning to RDIASQC, the amyloid nucleation score is -0.698 ± 0.98. For the substance RDLMEGRTTLWMNSGTAIWA, the amyloid nucleation score entry was “inactive”. Take RDPSQNTSKHLSNVAFISLY: the amyloid nucleation score entry is “inactive”. Take RDQSVCGLSRGVIRVVGSCG: the amyloid nucleation score result was “inactive”. Consider RDRGKY, for which the amyloid nucleation score entry is “inactive”.

Turning to RDRPKFII, the amyloid nucleation score result was “inactive”. Take RDVWDYSREHLYNDDFLIGA: the amyloid nucleation score was -0.422 ± 0.75.

Take RDYKLVRHHSHKDVLSCILW: the amyloid nucleation score entry was “inactive”.

As to REVGDQMIDLSRSYVQSTVG, the amyloid nucleation score entry was “inactive”. For REVVRDWERCY, the amyloid nucleation score entry is “inactive”. As to RFAVTSVMLTSETRDGFDHA, the amyloid nucleation score entry was “inactive”.

As for RFEFDQVFMF, the amyloid nucleation score turned out to be 1.32 ± 0.13. For the substance RFFAIL, the amyloid nucleation score result is “inactive”.

With RFGFSVKFMYDDGMSAVCTS, the amyloid nucleation score result was “inactive”. For RFGSVCPDL, the amyloid nucleation score entry was “inactive”. For the substance RFGVSKLARAS, the amyloid nucleation score result was “inactive”. In the case of RFIGFYPLLQGKNAASGRVL, the amyloid nucleation score result is “inactive”. RFILDVMRVAAGFMVSK: the amyloid nucleation score result is “inactive”. With RFIVS the entry was “inactive”.

On to RFKVT, for which the amyloid nucleation score result is “inactive”. In turn, RFLFNKRL showed an amyloid nucleation score of -0.029 ± 0.81. In turn, RFLFSCCVGL had an amyloid nucleation score of 2.3 ± 0.06. Take RFNMCGEYGKVHGLGW: the amyloid nucleation score entry is “inactive”. Consider RFPEAVPNKWSGPPTFNPHE, for which the amyloid nucleation score entry was “inactive”. With RFSRRYMHGFS the entry was “inactive”.

As to RFSTGDIWRYPDGNMFWTSL, the amyloid nucleation score entry was “inactive”. Take RFSVNGNR: the amyloid nucleation score result is “inactive”. RFSYWGKDRSRVSNL: the amyloid nucleation score result was “inactive”. The result for RFYKRICLLYPTRSEGESGF reads “inactive”; that for RGAPVFCFYKWFSTATCSIA, “inactive”. With RGKNVAWWVTSSTKSYSAK the figure was 0.304 ± 0.23; with RGLYKVD, “inactive”; with RGSCRLVNLEPCRIM, “inactive”.

Regarding RGSGWRTYVCTGSYALRV, the amyloid nucleation score entry is “inactive”.

For the substance RGSSTIYNETGLLGRLKGM, the amyloid nucleation score result was “inactive”. For RGTKAYMGVVCSTPTIFCPN, the amyloid nucleation score entry was “inactive”. In the case of RHGEIYAHYKMFVCRLDEVR, the amyloid nucleation score entry was “inactive”. As for RHGVTMRLSCQTWHFAFHLR, the amyloid nucleation score entry is “inactive”.

The values above are taken from the supplement of paper PMC12042874.
